The values that follow come from patent publication US20210254072, “TNF-TARGETING APTAMERS AND USES THEREOF FOR TREATMENT OR DIAGNOSING TNF-RELATED INFLAMMATORY DISEASES” (Academia Sinica, published 2021).

For series [1], the target named is BSA (bovine serum albumin) (UniProt P02769 P02769:25-607). Put plainly: filter; BSA 140 nM used as reference (1 fold). The protocol:
(§1) Human TNF-α proteins (0, 8.75, 17.5, 35, 70, 140 nM, R&D Systems) were incubated with aptTNF-α (50 nM) at 37° C. for 1 h. In addition, mouse TNF-α proteins (140 nM) or BSA (140 nM) were incubated with aptTNF-α (50 nM) or aptTNF-α-PEG (50 nM) as well. The protein-bound aptamers were then collected by nitrocellulose filter and eluted by heating. The amount of the eluted aptamers was quantified by quantitative PCR (LightCycler 480 system, Roche Applied Science, Mannheim, Germany) The dissociated constant (Kd) was calculated by GraphPad Prism 5 (GraphPad Software, San Diego, Calif.), using the equation Y=Amax×X/(Kd+X). The relative amounts of protein-binding aptamers (human TNF-α proteins and mouse TNF-α proteins) were represented as fold changes, using BSA as the reference (1 fold).

Series [2] deals with TNF-alpha (Mus musculus, UniProt P06804 P06804:80-235). As to the kind of experiment: filter; 140 nM protein, 50 nM aptamer; fold over BSA, value only in figure. The following applies: chain copies: 3 (inferred). The method, then:
as §1

Sequence of TNF-alpha (P06804 80-235, one chain of several): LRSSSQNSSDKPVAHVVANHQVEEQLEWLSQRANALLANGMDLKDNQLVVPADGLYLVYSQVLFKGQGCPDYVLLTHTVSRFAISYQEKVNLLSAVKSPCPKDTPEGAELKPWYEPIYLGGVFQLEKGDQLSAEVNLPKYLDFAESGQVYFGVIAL
Sequence of BSA (bovine serum albumin) (P02769 25-607, one chain of several): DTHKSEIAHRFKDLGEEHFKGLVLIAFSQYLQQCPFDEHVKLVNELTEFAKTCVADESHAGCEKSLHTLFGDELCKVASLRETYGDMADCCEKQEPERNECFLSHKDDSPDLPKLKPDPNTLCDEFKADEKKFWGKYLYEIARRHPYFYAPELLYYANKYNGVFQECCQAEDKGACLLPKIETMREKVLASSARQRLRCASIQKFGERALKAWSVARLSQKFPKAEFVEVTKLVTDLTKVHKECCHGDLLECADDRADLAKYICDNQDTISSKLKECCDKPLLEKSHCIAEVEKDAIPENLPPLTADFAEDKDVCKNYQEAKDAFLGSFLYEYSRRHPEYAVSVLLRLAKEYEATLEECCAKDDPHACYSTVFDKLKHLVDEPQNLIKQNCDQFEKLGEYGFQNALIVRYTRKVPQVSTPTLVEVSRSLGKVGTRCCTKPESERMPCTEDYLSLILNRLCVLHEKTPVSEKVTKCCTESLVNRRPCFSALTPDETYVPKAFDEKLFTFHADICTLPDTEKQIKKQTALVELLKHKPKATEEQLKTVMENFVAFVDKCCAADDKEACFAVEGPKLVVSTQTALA

GCGCCACTACAGGGGAGCTGCCATTCGAATAGGTGGGCCGC (ssDNA) [aptTNF-alpha] registered a binding signal in series [1] of 1 fold. For the same molecule, the binding result in series [2] is “binds”.

For GCGCCACTACAGGGGAGCTGCCATTCGAATAGGTGGGCCGC (ssDNA, two copies of amine-labeled SEQ ID NO: 1 linked by 20 kDa PEG (NHS-PEG-NHS)) [aptTNF-alpha-PEG (dimer)], the binding signal in series [1] amounted to 1 fold. Further, the binding result in series [2] was “binds”.
